The values below come from the Immune Epitope Database (IEDB).

The target of test [1] is HLA-A*02:02. Briefly: IEDB peptide-MHC binding, purified MHC/competitive/radioactivity; ≥ and ≤ were set here for values at or beyond the usual limits of such assays.
For test [2], the target named is HLA-A*68:02. The description is as above.
Test [3] deals with HLA-A*02:06. Briefly: IEDB peptide-MHC binding, cellular MHC/competitive/fluorescence; ≥ and ≤ were set here for values at or beyond the usual limits of such assays.
The target in test [4] is HLA-A*02:01. Described as above.
The target of test [5] is HLA-A*02:03. The test is described as above.
For test [6], the target named is HLA-A*02:01. Put plainly: IEDB peptide-MHC binding, purified MHC/competitive/radioactivity; ≥ and ≤ were set here for values at or beyond the usual limits of such assays.
Test [7] deals with HLA-A*68:02. Put plainly: IEDB peptide-MHC binding, cellular MHC/competitive/fluorescence; ≥ and ≤ were set here for values at or beyond the usual limits of such assays.
Test [8] concerns the target HLA-A*02:06. Put plainly: IEDB peptide-MHC binding, purified MHC/competitive/radioactivity; ≥ and ≤ were set here for values at or beyond the usual limits of such assays.
Where [9] appears, read: source organism: Vaccinia virus WR.
Where [10] appears, read: source organism: Mammarenavirus brazilense.
The mark [11] stands for this setting: source organism: Mammarenavirus machupoense.
The mark [12] stands for this setting: source organism: Mammarenavirus guanaritoense.
Where [13] appears, read: source organism: Mammarenavirus choriomeningitidis.
[14] abbreviates: source organism: Influenza A virus.

On to DTSNNIAEYI, for which the half-maximal inhibitory concentration (IC50) in test [1] (setting [9]) stood at 3.33 µM; in test [2] (setting [9]), 0.047 µM; in test [3] (setting [9]) it was 45.7 µM; in test [4] (setting [9]) it was 6.29 µM; in test [5] (setting [9]) it was 9.22 µM.
On to IMLIIFWFSL, for which the IC50 in test [1] (source organism: SARS-CoV1) was 1.54 µM; in test [6] (source organism: SARS-CoV1) it was 3.83 µM; in test [3] (source organism: SARS-CoV1) it was 16.8 µM; in test [7] (source organism: SARS-CoV1), not below 70 µM; in test [5] (source organism: SARS-CoV1), 14.9 µM.
EIARIENEM: the IC50 in test [1] (setting [9]) was 0.335 µM; in test [2] (setting [9]), 0.0084 µM; in test [3] (setting [9]) it was not below 70 µM; in test [4] (setting [9]), not below 70 µM; in test [5] (setting [9]) it was 47.9 µM.
As for LNISGYNYSL, the IC50 in test [1] (setting [10]) was found to be 0.077 µM; in test [8] (setting [10]), 1.1 µM; in test [4] (setting [10]), 10.6 µM; in test [7] (setting [10]) it was 12.9 µM; in test [5] (setting [10]), 49 µM.
As to ALWDSNFFT, the IC50 in test [1] (setting [9]) was 1.06 µM; in test [6] (setting [9]), 3.69 µM; in test [3] (setting [9]), 23.1 µM; in test [7] (setting [9]), 7.41 µM; in test [5] (setting [9]), 28.2 µM.
For YVHSLLYSSM, the IC50 in test [1] (setting [9]) is 2.2 µM; in test [8] (setting [9]), 2.25 µM; in test [4] (setting [9]), 29 µM; in test [7] (setting [9]), 7.25 µM; in test [5] (setting [9]) it was 6.71 µM.
On to IISTDQDTM, for which the IC50 in test [1] (setting [9]) came out at 4.3 µM; in test [8] (setting [9]), 2.36 µM; in test [4] (setting [9]), 5.87 µM; in test [7] (setting [9]), 6.69 µM; in test [5] (setting [9]), 33.2 µM.
As for RAGYSIVEL, the half-maximal inhibitory concentration (IC50) worked out at 4.94 µM in test [1] (setting [9]); 5 µM in test [6] (setting [9]); 1.21 µM in test [2] (setting [9]); 5.07 µM in test [3] (setting [9]); 5.39 µM in test [5] (setting [9]).
With HLTENNLYI, the IC50 in test [1] (setting [9]) stood at 0.114 µM; in test [8] (setting [9]), 1.81 µM; in test [6] (setting [9]) it was 0.015 µM; in test [7] (setting [9]), 5.81 µM; in test [5] (setting [9]), 14.4 µM.
For the sequence SSWAVHWFS, the IC50 was 4.65 µM in test [1] (setting [11]); 4.1 µM in test [2] (setting [11]); 46.8 µM in test [3] (setting [11]); 8.01 µM in test [4] (setting [11]); not below 70 µM in test [5] (setting [11]).
With TQSGALEVLM, the IC50 in test [1] (setting [9]) stood at 0.836 µM; in test [8] (setting [9]), 2.23 µM; in test [4] (setting [9]), 10.6 µM; in test [7] (setting [9]), 12.3 µM; in test [5] (setting [9]) it was 15.4 µM.
In the case of CTSEIQNVT, the concentration for half-maximal inhibition (IC50) in test [1] (setting [9]) was 0.188 µM; in test [2] (setting [9]), 0.09 µM; in test [3] (setting [9]), 10.2 µM; in test [4] (setting [9]), 13.5 µM; in test [5] (setting [9]), 5.19 µM.
For the sequence MNNVVQALT, the IC50 was 2.29 µM in test [1] (setting [12]); 0.281 µM in test [2] (setting [12]); not below 70 µM in test [3] (setting [12]); 7.48 µM in test [4] (setting [12]); 21.5 µM in test [5] (setting [12]).
As for RSASGGVYL, the IC50 in test [1] (setting [10]) stood at 0.278 µM; in test [2] (setting [10]) it was 4.44 µM; in test [3] (setting [10]), 13.6 µM; in test [4] (setting [10]) it was 32.5 µM; in test [5] (setting [10]), 14.5 µM.
Regarding QIYLSDSDNI, the half-inhibitory concentration (IC50) worked out at 1.24 µM in test [1] (setting [9]); 0.658 µM in test [2] (setting [9]); 14.9 µM in test [3] (setting [9]); 24.9 µM in test [4] (setting [9]); 19.6 µM in test [5] (setting [9]).
In the same order, the values of DAEFVMCLEA are 2.41 µM, 1.59 µM, 12.7 µM, 9.14 µM and 7.3 µM.
Turning to NLEELTTVFI, the half-maximal inhibitory concentration (IC50) in test [1] (setting [9]) is 0.418 µM; in test [2] (setting [9]), 1.3 µM; in test [3] (setting [9]), 12.3 µM; in test [4] (setting [9]) it was 7.5 µM; in test [5] (setting [9]), 6.5 µM.
In the case of NIVTDLENRL, the IC50 in test [1] (setting [9]) came out at 0.261 µM; in test [8] (setting [9]), 1.55 µM; in test [4] (setting [9]), 19.6 µM; in test [7] (setting [9]), 13.2 µM; in test [5] (setting [9]), 17.6 µM.
With KSYFTNAAL, the IC50 worked out at 0.593 µM in test [1] (setting [11]); 4.97 µM in test [6] (setting [11]); 0.106 µM in test [2] (setting [11]); 12 µM in test [3] (setting [11]); 7.18 µM in test [5] (setting [11]).
In the case of LSYSQTMLL, the IC50 in test [1] (setting [13]) turned out to be 2.11 µM; in test [8] (setting [13]), 3.72 µM; in test [4] (setting [13]), 8.28 µM; in test [7] (setting [13]), 6.76 µM; in test [5] (setting [13]), 11.3 µM.
Regarding LLLIVQALR, the IC50 stood at 1.49 µM in test [1] (setting [14]); 3.15 µM in test [8] (setting [14]); 3.09 µM in test [6] (setting [14]); 42.4 µM in test [7] (setting [14]); 8.19 µM in test [5] (setting [14]).
For the sequence DIYDAVRAFL, the IC50 in test [1] (setting [9]) turned out to be 1.46 µM; in test [2] (setting [9]) it was 0.257 µM; in test [3] (setting [9]), 12.1 µM; in test [4] (setting [9]) it was 5.42 µM; in test [5] (setting [9]), 6.95 µM.
